Test results from the domain aggregation screens of Martell et al. (2025).

Experiment: soluble fraction after stress (log2 fold change); higher = more stays soluble; pooled small domains, quantitative proteomics
Settings: stress: 50 degC
How it was run: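 Custom libraries of small protein domains were pooled and measured in a high-throughput format, with quantitative proteomics as the read-out. Each library was stressed at 50°C. The value is the log2 fold change in the amount of each protein that stays soluble after stress, used as a measure of aggregation propensity; higher values mean more of the protein stays soluble.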

| Sequence | soluble fraction (log2) |
| --- | --- |
| HMSQLTVGTVVTGNASLQTQGLKLPSFASGSRPASPNIGQMIWNSSDAKAQIWNGSEWDDVG | -0.198 |
| HMSQNVSFTVDSGQAGLRLDVFLSQADPAFSRSQIKYAIEEGDVTVNGKEPKVSQHLKDGDIVELHLE | -0.0973 |
| HMSQQEAQLNSLVKIYESMKPKDAARIFDTLDMDVLLDVVMRMKEARSAAVLAEMTPDRAKEVTLQLAD | -0.61 |
| HMSQTDQALRHLIREAWATLPQRQQQAVELAYYEGLPDTEIAARLNQPVEEVKTSIVLGMAHLREALHSY | -0.583 |
| HMSQTDTDAKDARQKILALLSDGEWHQKTELLKIDAPKEAVSNAIRYLVLEELISIDHAKVRA | -0.489 |
| HMSQTVKYVNTTSGLNMRTGPATSYAKITTIAYGQSVNVLSTSNGWSKINYSGSTGYVSSQYLQSKKPS | -0.942 |
| HMSQVHYAVLFKNASAAEATEIVTYARETLGVQDIKINANGDILVPEDKVEEMRVSMSIAGFPK | 0.22 |
| HMSQVSTKYINVSSAYVRSKPSKDGEIVTSLIKNTDVTVTGENGDWYKIKFNNYEGYIFKELLSDSKLEE | 0.15 |
| HMSRAMFEMHADWQPTDSIRGLLGRAGLPTDIAKLDQSRIGDFVNHWFGKPDRNTADSWNGLLVGWLKRTQ | -1.18 |
| HMSREEFLAGLEEALAGEVPASVIRENLNYYNSYISQEMAKGRTVDEIVDEIGEPRIVARTIIDSSEAAGE | 0.0724 |
| HMSRELVILGNSMLNNALKAFHVSPASIKKKHWDKLILDYHLESKNNILIDIALGKRINVMVAHQLTSIID | 0.56 |
| HMSREVTVPPLSGLTLRDAARTLAERGLLMEAEGQGAVHRQDPPAGTRVPTGTPVRVFLTLPEQNS | 0.333 |
| HMSRGTLFVDVRGAVAKPGVYELPEKSRVFQAVEAAGGLLPEALERLVNQAAELTDGQQVYIPFEGEE | 0.296 |
| HMSRLLRTDAHLQYAAERGLPVTASAYTPVFAGAKQYTGRIESFDAQTIRFADGPAVERKAVARLEAE | 0.159 |
| HMSRLLTTRQREVFEVATREGFWDVPRRINLSELAKVLGVAKSTLSSQLQRIESAVFHAFTDEIRRQS | -2.16 |
| HMSRMLTVKQREVFDLAMREGYWETPRRITLTMLASLLSVSKSTLSVQLHKIEGTVLSSFSDEVRRRS | -1.49 |
| HMSRQDYLQTIYRLSVGKGYTTNKKIADFLSVSKPSVTEMIGKLQGEGLVAMDGAHIFLTEDGAEQ | -0.567 |
| HMSRVTVDVNPDVLQWAIDKKGKGDIKNKFPKIDEWLNGISKPTIHQLENFAKYVSVPFGYLLLSKPPVE | 0.276 |
| HMSRYQDIANDIEKDIIEKKYTRKLPEQFELAQKYQTSRVTIVHALKILQNKKLIRTVKGHGTFITS | -1.4 |
| HMSSDEDELESIIKRVFADNPIELERLQNGEDKLIKFFMGLVMRQTKGKYPPKIIIDLLNKS | -0.411 |
| HMSSDLDQYMKNIRKQHNLSKREFAKQLGISAATIVRIENGITVSPSKNLISKLAYYLQKSEVEILQDIQS | -1.08 |
| HMSSEMATLRSIVDNKQAEKVHGMMVDMFTASAMVQVYDKVNDENQAKMREMLKTQKGFQRMADFALSKI | -0.172 |
| HMSSEPASLVGKTGVAASVLRPSGRVEVNGEYYDAVSINGFIEKGESVFVHKYENAQLYVSKNSE | 0.0445 |
| HMSSESIKTDKNVGVGSTLEELEKAYGSDYTLSGKMYRYYQDDNSKYMYFFILNDVVQYYGYGIDV | -1.53 |
| HMSSIDLTARSGRAALKHRLSLLGYEFSKIELETLYVRFIELADEKKLLHDEDLIELVKEKN | -1.37 |

| Sequence | soluble fraction (log2) |
| --- | --- |
| HMSSIRDVVPEGLLSDREKLVLVLAFDRDLDGPDMARTLGISANTVRVLKARALKKLRQAGIQP | -0.957 |
| HMSSIVLTARSGRAALAYRVKSIGVDLSKDQLDLVYKTFLGFADKKKEIIDTDIPQILKASGI | -1.92 |
| HMSSIYVYPNPTANRIYIQADNIKKAELFDLMGRKVRSTNQPQIDISRLSRGNYILQVKTQNNTQSFKIIK | -0.476 |
| HMSSKAVLEKFEALFIDQMLQSMRKATVRSELFDSEGIKLYESLFDKEISEELAKSGGLGLTKDLEQQL | -0.888 |
| HMSSKFKIVGEILSIKKSDILYIIEILSNNEVVKATAVEDEIKDLKIGDKILLSSKAFNPIVNK | -0.487 |
| HMSSLTDNFVKALSYYLALSGKSKKEVADGIGIPPTTFSSWSNGKHLPDMDRLQNLATYLGAPVSEFFDFT | -0.0831 |
| HMSSPVGIAQATTYVYVRAGHSMQAAKVGVLSPGEKVGVTGRSAQGFSEVVYNGVHRWVGSRYLSPT | -1.4 |
| HMSSQWWYSAGGERKGPVDFATLRGLYVQGAIDGRTLAWREDMQGWEAVNDIPDLEPLRRAVPPEL | -0.0348 |
| HMSSRSLSYSDFIERVDAGQVSKVVMDGERLVVVGQDGTSYVTIKPPGDQVTENLSRELISKGVEVEAEPQ | 0.0107 |
| HMSSRSLTYSDFIERVDAGQVDAVTLDGERIVIRAKDGNTYVAIKPQGEDVTGSLTRDLIAKGVDVEAEPQ | 0.0928 |
| HMSSSDYDVYNKAINLMLNLLKEPKSIEEVTASLNITKSQAITWINRALNEGKIIKTNRPVRYVVNN | -0.596 |
| HMSSSYMVRITTSVLNVRKGPGTNYGITTKVKKGEVYTIVAEEKNGNTTWGKLKSGTGYISLGYTER | -1.29 |
| HMSSSYVYGGNGEIVILSDVSKHLNVYNLNGQKVTDVNLTAGELQRISIATGIYVVGGKKIVV | -2.92 |
| HMSSVGELEVGNIFEGTVNSVRGGKVLLALGNGQMVLAQMDGRVNITPGSSMFFQVKSNDGETVAIRPYTG | -0.133 |
| HMSSWAEGLTERERHTLMWITKGLSNKLIARELGISDSTVKVYVKNLLRKLNVNSRLELAAWVHTHPL | -0.906 |
| HMSSYTQEDVRSGILYMAQLKPRNIEEFVSTLAFSKDDIMDNLSFLVDEGFLKFDADTDTYFNPVPL | -0.214 |
| HMSTADGGYPSIVINDGRVIDTNLQKLGLDRSWLSAELKRQGKGSEKDIFLMTVNQRREVYISVKEA | -0.27 |
| HMSTEAFLGTEGEVVLPLLPDGLGKIRLHVADQDVELPARTGGEPIQIRERVVVVRFRDGIAEVEPAP | 0.191 |
| HMSTEDYLKTIYILESQQGVHGSDVARMLKVTRPTVSIALKALEQEGYVWMDESRLVHLTDSGLQIAKDT | -1.12 |
| HMSTESAHLGERMLNQALRAMHIEPDQITEAHWQKLIRDYGLKKKSEILTDIGLGKRQNVMVAHQLLAMG | -0.106 |
| HMSTFKSYRGKITASSGVNIRTGAGTNYNKNGALTYNSVVTIVDEKKVSGTTWGKLADGRGWISLDYLKK | -0.554 |
| HMSTGGDLTQRERELLGLMARGLSNQEISKRLTIAMPTVKFHVTNILAKLHADNRTEAVLVALKNKLVAL | -0.748 |
| HMSTINGIEKYLSSGLIPYIGPKTAKRIVEKFGLDTLEIIQYNPERLKEIEGIGDKKLKKIVEAFEEQG | -0.102 |
| HMSTISPNAFNFLQQNLNKFSDDAEGKMIKDILSKTTYDEYVKNEKSKTDFNSLLRRQTTTGDDNLNRYIN | 0.0247 |
| HMSTKEFTIHAGEWSYRVSQKLENLGLVSDAKKFDQYLEDNGYSSKIKIGHYTISKDADFEEIAKEIT | 0.0383 |

| Sequence | soluble fraction (log2) |
| --- | --- |
| HMSTKRGEILEFLKDFSARKGYAPSVREIMQAVGLKSTASVHYHLSELHKAGLITVDGTKNRAISLA | -0.149 |
| HMSTMKSKWFVSSNPIAGVMKYQAQRKKDVNAVDSSENREASGQWYTDKEEAQAIVDKLNAEEQIKEAGK | 0.159 |
| HMSTMLPFVMRELVELVMKKKALPLGDALYYIYSSKLYKSLLDKSTKLWYSSTLSLYETLEKEKTEEKRRY | -1.79 |
| HMSTMTDAQRHLFANKLSQLPEMGKYSHGTESYQQFAVRIAEMLQTPKKFKELYPYLQKVGFKA | 0.00319 |
| HMSTNYVQVLRAALNGVSGRKLAQQYRVSRDTVAILLRQAKIQGWQRAEDLENITEEDLVALLSG | -0.373 |
| HMSTPLPTGLPRGTIIEYTVQTDETLAIIAAKFNSTVDDIMTRNKITDPNTIYAGQILKVAINLVTP | 0.15 |
| HMSTPVPIEGQPTENLNLRDQPSTSGKILTTIPKGKTVTILSEKNANGWYKVSYNGKTGYVSGSYFKVTK | 0.317 |
| HMSTSERLKQVMEVKGFNLKTFSEQADIPYRTLQNYILTNREPSAESLAKLHSQLGINLNWLMSGKGEMF | -0.283 |
| HMSTSIADNSSITYKVRKGDSLASIAKRHGVNINDVMRWNSVITKASQIQPGDMLTLYVRDS | 0.026 |
| HMSTTALLEKMVRYIRTLPVISQVVLSLHYYRGMELREIASELDITESRASQLHTTAVLGIRDLLSSY | -3.33 |
| HMSTTGIVKWFNEEKGFGFITQDQGGADVFVHYRAIASEGFKTLAEGQKVSFEVEQGQKGLQAANVQA | 0.0843 |
| HMSTTHLTASVIKDKVNVRSEADSQNGAIIDKARTGERLLVTDYGNKWTGIVLPDGKRGYIMTEYLQF | 0.0443 |
| HMSTTSYTQFMEDAKAGKIARVDIKGREITVTPTEGSRYVITSPGDLWMVDDLRKDGVQVYGPP | 0.101 |
| HMSTTYLNEGDRITLTDSVNIRTSMSETADRVGLAYQGDVVTVIMSYAEGWTKVSWNGQTGYAKTEYL | -0.617 |
| HMSTVIENVFKNFEVYEIKKGDTFYNIEKRFGVNRQELLVLNPELKEGLKLGMVLKIKEIIP | -1.07 |
| HMSTYTETETAYLKAYSAAGVDGKISDSERGILNMTAEALGITVERTTELEAMFNLTVEEEA | -0.118 |
| HMSVDIWTGAQTGNIEAVKQHLADGVDVNSKSDIGRTALDVAIAFKQPLITDLLRKHGGKTRDELKAAE | 0.545 |
| HMSVEVADITRAYYEGVGFEWWIRSVRLDPNELIVDNDDEGKLYRVPFEINGEEVTFGDPVEVKIRYE | -0.541 |
| HMSVFGDNVARLRAEHGMSQRALAERLEITNGTVAAWESRDTLPDYDRIRQIAEIFDVPIPQLFAKYIP | -1.66 |
| HMSVISVETAKSKALAHAGLTASKVTFIENKLEWDDGRQVYDIEFYTSDYKEYDYTIDAVSGQVLEFDY | -1.13 |
| HMSVKLMEVKGASTVVSRQVREAVSIVFPTSSMRLDLVALKARIEGVDAVKRADVYLRNGILEIQIDER | -1.99 |
| HMSVKLYPNPTRSVTTFATDVDKWYLYDNQGKLVSEGNTKTIDVTAFPVGIYFVKTIKGNNSTFVKLIV | -1.4 |
| HMSVLNLQTDIPKKYTDVLGTSVKGRLNTLVHNVIINSVDRPVIQMSEEVHEAMQGLRIFMFENVYRNPV | 0.0658 |
| HMSVLSEQIKEQLMEDIFHKKYKAGDRIVESALARELGVSQASVREALRSLIAMGFLENEPFKGITVR | 0.0703 |
| HMSVNAPMPGKIVNVLVSEGQKVNSGDVLLILEAMKMQNEIAATQAGTVKAINVAAGQSVKVGDALVN | 0.108 |
